These results are taken from paper PMC7005674.

pKd: −log10 of the molar value.

The data set deals with T1, Rap1-Halo (Saccharomyces cerevisiae) (UniProt P11938).
T1 sequence: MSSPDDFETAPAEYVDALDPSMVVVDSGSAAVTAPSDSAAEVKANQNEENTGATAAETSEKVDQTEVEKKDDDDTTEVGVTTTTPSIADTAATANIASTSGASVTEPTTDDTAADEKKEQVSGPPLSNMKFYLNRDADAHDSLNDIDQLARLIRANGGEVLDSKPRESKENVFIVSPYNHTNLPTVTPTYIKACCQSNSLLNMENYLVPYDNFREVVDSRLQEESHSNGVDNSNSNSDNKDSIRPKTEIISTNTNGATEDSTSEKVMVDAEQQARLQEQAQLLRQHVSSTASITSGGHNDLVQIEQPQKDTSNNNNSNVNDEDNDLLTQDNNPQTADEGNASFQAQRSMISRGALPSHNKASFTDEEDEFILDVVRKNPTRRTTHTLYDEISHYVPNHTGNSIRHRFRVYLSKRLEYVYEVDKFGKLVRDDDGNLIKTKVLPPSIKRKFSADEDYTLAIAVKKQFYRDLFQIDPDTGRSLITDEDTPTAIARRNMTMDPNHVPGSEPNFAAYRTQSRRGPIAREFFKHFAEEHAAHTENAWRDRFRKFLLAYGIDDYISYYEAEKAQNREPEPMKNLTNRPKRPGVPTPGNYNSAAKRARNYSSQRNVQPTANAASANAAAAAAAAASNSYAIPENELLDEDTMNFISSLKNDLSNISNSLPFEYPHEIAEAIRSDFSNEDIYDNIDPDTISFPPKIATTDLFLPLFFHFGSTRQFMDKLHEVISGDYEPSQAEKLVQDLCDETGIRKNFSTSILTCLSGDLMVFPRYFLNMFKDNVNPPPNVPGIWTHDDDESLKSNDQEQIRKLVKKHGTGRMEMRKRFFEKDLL
As to the kind of experiment: EMSA. As to conditions: EMSA (DNA): 50 mM HEPES pH 7.5, 130 mM KCl, 10% glycerol, 0.005% Tween 20, 2 mM Trolox, 3.2% glucose, 50 ng/ul poly-d(I-C), 10 min, room temperature; smTIRF …. (In general: Mobility shift assays separate free from complexed probe on a gel.)
As usually defined, the pKd is the Kd on a negative log10 scale, so that one unit is a factor of ten. A high value points to a small Kd. Take “CACACTGTGCCAAGTACTTACGCGGCCGCCCTGGAGAATCCCGGTGCCGAGGCCGTACATCTGTGCACCGACAGCTCTAGCACCGCTTAAACGCACGTACGCGCTGTCCCCCGCGTTTTAACCGCCAAGGGGATTACTCCCTAGTCTCCAGGCACGTGTCAGATACTGCAGAGATCTCTAGATCCATGGAGTACTTGGTCTCAAACC (double strand) [MN S1+6]”: the negative logarithm of the Kd (pKd) was 7.20. Next, “CACACTGTGCCAAGTACTTACGCGGCCGCCCTGGAGAATCCCGGTGCCGAGGTACATCTGTGCACCGTAGACAGCTCTAGCACCGCTTAAACGCACGTACGCGCTGTCCCCCGCGTTTTAACCGCCAAGGGGATTACTCCCTAGTCTCCAGGCACGTGTCAGATACTGCAGAGATCTCTAGATCCATGGAGTACTTGGTCTCAAACC (double strand) [MN S1+3]”: 7.31; “CACACTGTGCCAAGTACTTACGCGGCCGCCCTGGAGAATCCCGGTGCCGTACATCTGTGCACCGTCGTAGACAGCTCTAGCACCGCTTAAACGCACGTACGCGCTGTCCCCCGCGTTTTAACCGCCAAGGGGATTACTCCCTAGTCTCCAGGCACGTGTCAGATACTGCAGAGATCTCTAGATCCATGGAGTACTTGGTCTCAAACC (double strand) [MN S1]”: 7.12.
